Assay [1] addresses P. aeruginosa RloA2 (PA0462), residues 18-169 (P. aeruginosa). As to the kind of experiment: SEC-MALS; 5 mg/mL (289 µM) protein on Superdex 200 Increase 10/300 in 25 mM Tris-HCl pH 7.5, 300 mM NaCl, 0.7 mL/min. For orientation: In gel filtration, larger molecules generally elute earlier.
In assay [2] the target is P. fluorescens RloA (Pfl01_1762), residues 20-178 (P. fluorescens). The assay is described as above.

Usually stoichiometry N stands for the number of molecules, sites or subunits per partner or assembly.

“P. aeruginosa RloA2 (PA0462), residues 18-169 (enzyme)” displayed a stoichiometry N in assay [1] of 2.
Substance “P. fluorescens RloA (Pfl01_1762), residues 20-178 (enzyme)” registered a stoichiometry N in assay [2] of 2.

(Values after publication PMC12239564.)
